From paper PMC11875817 come the findings set out here.

The target in experiment [1] is Escherichia coli MG1655 thioredoxin reductase TrxB (Escherichia coli MG1655) (UniProt P0A9P4).
The target of experiment [2] is Bacillus subtilis 168 thioredoxin reductase TrxB (Bacillus subtilis 168) (UniProt P80880).
Chain of UniProt P80880 (P80880 whole entry): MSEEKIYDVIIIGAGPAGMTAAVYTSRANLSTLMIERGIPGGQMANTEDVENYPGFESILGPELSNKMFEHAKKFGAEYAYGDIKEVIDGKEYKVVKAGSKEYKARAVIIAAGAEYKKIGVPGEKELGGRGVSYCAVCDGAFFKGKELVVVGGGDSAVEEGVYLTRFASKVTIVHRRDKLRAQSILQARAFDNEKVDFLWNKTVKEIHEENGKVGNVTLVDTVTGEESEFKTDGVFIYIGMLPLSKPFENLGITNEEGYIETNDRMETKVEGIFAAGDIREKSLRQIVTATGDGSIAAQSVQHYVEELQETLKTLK

Chain of UniProt P0A9P4 (P0A9P4 whole entry): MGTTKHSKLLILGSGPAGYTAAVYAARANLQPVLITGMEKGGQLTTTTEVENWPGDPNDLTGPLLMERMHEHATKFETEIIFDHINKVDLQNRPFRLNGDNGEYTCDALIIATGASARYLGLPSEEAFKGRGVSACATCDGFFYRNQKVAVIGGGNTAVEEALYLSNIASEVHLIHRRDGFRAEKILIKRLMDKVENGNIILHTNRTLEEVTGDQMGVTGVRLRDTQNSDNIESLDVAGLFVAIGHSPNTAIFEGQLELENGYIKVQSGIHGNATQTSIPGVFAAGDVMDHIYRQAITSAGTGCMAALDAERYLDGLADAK

Turning to “Escherichia coli K-12 MG1655 thioredoxin TrxA (from UniProt P0AA25 1-109) (natural protein)”, in experiment [1], the Km of TrxB for its substrate TrxA; DTNB reduction assay (TNB release, A412), 50 nM ecTrxB, 0 to 6 μM ecTrxA, NADPH, no auranofin was determined as 1.35 µM.

B1: Bacillus subtilis 168 thioredoxin TrxA (natural protein)
chain: MAIVKATDQSFSAETSEGVVLADFWAPWCGPCKMIAPVLEELDQEMGDKLKIVKIDVDENQETAGKYGVMSIPTLLVLKDGEVVETSVGFKPKEALQELVNKHL
Turning to B1, in experiment [2], the Km of TrxB for its substrate TrxA; DTNB reduction assay (TNB release, A412), 50 nM bsTrxB, 0 to 6 μM bsTrxA, NADPH, no auranofin was 1.72 µM.
